Results taken from patent publication US6897196B1, “pH sensitive lipids based on ortho ester linkers, composition and method” (The Regents of the University of California, priority 2001, dated 2005).

Key:
[1] = Acid sensitivity of POD as monitored by thin layer chromatography; format: physicochemical; conditions: for degradation of POD (disappearance of the compound spot at Rf~0.4): within one hour
Protocol: Conical polystyrene microcentrifuge tubes (0.5 mL) containing 20 μL 100 mM sodium phosphate buffer of different pH were pre-warmed at 37° C. for 30 min and silica gel TLC plates (WhatmanCE from Whatman Ltd, Maidstoned, Kent, England) were pre-equilibrated with the solvent system (CHCl3/MeOH/NH4OH=100:15:1) by running the plates without samples followed by brief air-drying. Eight milligrams of POD was dissolved into 100 μL water by vortexing and 20 μL of the solution was added into each of the pre-warmed tubes and mixed thoroughly. The tubes were incubated at 37° C. and 10 μL of the solutions were aliquoted at different time points and mixed with 10 μL of 10% concentrated NH4OH (30% w/w) in acetone to stop the hydrolysis. Five microliters of the mixture was spotted onto pre-equilibrated TLC plates. Three microliters of distearoyl glycerol, monomethyl ether of PEG2000 and POD in 10 mg1 mL CHCl3 solution were also spotted as standards. TLC plates were developed, heated at 150° C. for 5 min and stained in I2 chamber for 1 h to observe the locations of POD and its degradation products.

[2] = Critical Micelle Concentration of POD dispersion; format: physicochemical; conditions: 150 mM Tris/CL buffer pH 9.0
Protocol: In one example 10 μmoles of methoxypolyethylene glycol 2000-diortho ester-distearoyl glycerol conjugate was dried from a chloroform solution unto the sides of a glass vessel. […] Under these conditions the POD has a Critical Micelle Concentration (CMC) of about 10 μM and micelles will be formed. An aliquot of 0.05 mL of the POD micelles is added to 1 mL of a 10 mM (total lipid) liposome suspension consisting of DSPC:Chol in the mole ratio of 55:40 in a 0.14 M NaCl-10 mM Tris, pH 8.0 buffer. The mixture is incubated at 37° C. for 2 hours. After this time the POD is incorporated into the liposome and the liposome can be injected into an animal.

3,9-Diethyl-3-(2,3-distearoyloxypropyloxy)-9-(methoxypolyethyleneglycol2000-1-yl)-2,4,8,10-tetraoxaspiro[5,5]undecane [POD]
degradation of POD ([1]; buffer of neutral pH 7.4, 37° C., over 3 hours): most of the conjugate remained intact | approximate half-life of POD degradation ([1]; buffer of pH 6, 37° C.): ~2.5 h | degradation of POD (disappearance of the compound spot at Rf~0.4) ([1]; buffer pH 4, 37° C.): completely degraded | degradation of POD (disappearance of the compound spot at Rf~0.4) ([1]; buffer pH 5, 37° C.): completely degraded | Critical Micelle Concentration (CMC) [2]: about 10 μM
